Kd data for 7 molecules are collected here from patent publication US20260159596A1 (published 2026).

The labels stand for the following.
T1: recombinant DR3 (DR3-His tag) (human, UniProt Q93038 25-199)
T1 chain: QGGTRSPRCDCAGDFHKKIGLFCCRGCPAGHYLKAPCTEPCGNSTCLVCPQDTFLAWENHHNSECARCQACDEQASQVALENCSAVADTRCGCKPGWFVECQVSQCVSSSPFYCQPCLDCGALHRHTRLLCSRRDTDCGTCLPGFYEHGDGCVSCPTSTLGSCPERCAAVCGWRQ

B1: anti-DR3 3-18 monoclonal antibody (antibody, V domains shown)
VH: QVQLQQSGPGLVKPSETLSLTCTVSGGSISSSSYYWGWIRQPPGKGLEWIGSIYYSGSTYYNPSLKSRVTISVDTSKNQFSLKLSSVTAADTAVYYCARQVSGPLDYWGQGTLVTVS
VL: DIVMTQSPSSLSASVGDRVTITCRASQGIRNDLGWYQQKPGKAPKLLIYAASSLQSGVPSRFSGSGSGTDFTLTISSLQPEDFATYYCLQDYNYPRTFGQGTKVEIK
B2: clone 4-4 IgG2 monoclonal antibody (antibody, V domains shown)
VH: EVQLVESGGGLVKPGGSLRLSCAASGFTFSDYYMSWIRQAPGKGLEWVSYISSSSSYTNYADSVKGRFTISRDNAKNSLYLQMNSLRAEDTAVYYCASNVDTAMVGAFDIWGQGTLVTVS
VL: DIEMTQSPSSVSASVGDTVTITCRASQHISNWLAWYQQKPGQAPKFLIYTASNLQSGVPSRFSGSGYGTDFTLTISGLQPEDFATYYCQQADSFPLTFGGGTKVDIK
B3: clone 4-4 IgG1 monoclonal antibody (antibody, V domains shown)
VH: EVQLVESGGGLVKPGGSLRLSCAASGFTFSDYYMSWIRQAPGKGLEWVSYISSSSSYTNYADSVKGRFTISRDNAKNSLYLQMNSLRAEDTAVYYCASNVDTAMVGAFDIWGQGTLVTVS
VL: DIEMTQSPSSVSASVGDTVTITCRASQHISNWLAWYQQKPGQAPKFLIYTASNLQSGVPSRFSGSGYGTDFTLTISGLQPEDFATYYCQQADSFPLTFGGGTKVDIK
B4: TL1A (tumor necrosis factor-like ligand 1A), His tag (ligand)
chain: LKGQEFAPSHQQVYAPLRADGDKPRAHLTVVRQTPTQHFKNQFPALHWEHELGLAFTKNRMNYTNKFLLIPESGDYFIYSQVTFRGMTSECSEIRQAGRPNKPDSITVVITKVTDSYPEPTQLLMGTKSVCEVGSNWFQPIYLGAMFSLQEGDKLMVNVSDISLVDYTKEDKTFFGAFLL
B5: anti-DR3 6-2 monoclonal antibody (antibody, V domains shown)
VH: QVQLVQSGGGLVQPGGSLRLSCAASGFTFSSYSMNWVRQAPGKGLEWVSYISSSSSTIYYADSVKGRFTISRDNAKNSLYLQMNSLRAEDTAVYYCARWDGYCSGGSCYSGMDYWGQGTLVTVS
VL: not shown
B6: anti-DR3 2-10 monoclonal antibody (antibody, V domains shown)
VH: QVQLVQSGAEVKKPGASVKVSCKASGYTFTSYGISWVRQAPGQGLEWMGWISAYNGNTNYAQKLQGRVTMTTDTSTSTAYMELRSLRSDDTAVYYCASGPDYGMLDYWGQGTLVTVS
VL: EIVMTQSPSSLPASVGDRVTITCQASQDISNYLNWYQQKPGKAPKLLIYDASNLETGVPSRFSGSGSGTDFTFTISSPQPEDIATYYCQQYDNLPLTFGGGTKVEIK
B7: anti-DR3 6-15 monoclonal antibody (antibody, V domains shown)
VH: QVQLVQSGGGLVQPGGSLRLSCAASGFTFSSYSMNWVRQAPGKGLEWVSYISSSSSTIYYADSVKGRFTISRDNAKNSLYLQMNSLRAEDTAVYYCARWDGYCSGGSCYSGMDYWGQGTLVTVS
VL: DIEMTQSPSSLSASVGDKVTITCQASQDISNYLNWYQQKPGKAPKLLIYDASNLETGVPSRFSGSGSGTDSTFTISSLQPEDIATYYCQQYDNLPLTFGGGTKVEIK

This assay deals with T1, recombinant DR3 (DR3-His tag). As to the kind of experiment: SPR. Background: In SPR one partner is held on a chip, and binding of the other changes the refractive index at the surface.
Broadly, the Kd is the free concentration of one partner at which half of the binding sites on the other are occupied at equilibrium, for simple one-to-one binding. As for B1, the Kd amounted to 0.0463 nM.

For the molecule B2, the Kd amounted to 35.8 nM.

On to B3, for which the Kd is 1.56 nM.

Regarding B4, the Kd is 426 nM.

In the case of B5, the equilibrium dissociation constant (Kd) was determined as 3.91 nM.

As for B6, the dissociation constant Kd came to 0.693 nM.

B7: the Kd was 82.4 nM.
